Source: the DeepSol protein solubility set

Experiment: soluble on expression in E. coli; label from the status in PepcDB or PDB records

Sequence | soluble on expression in E. coli
MGSSHHHHHHSSGLVPRGSHMASMTEQRTKYADSILTTKSPYEATETIRIRLSQVKLLNKDFYLLFKELANLKRNYAQQLRKIIAENEDITKILNAQMIESNVLTPQEMSAFRFNSLGELRNVWDTVIEELKSDLKSSTEYYNTLDQQVVRELKESVENNTSWRESKDLHSKLSKNAASIEHYSKNNENSSHLEEARRQWDQQSPYLFELFETIDYNRLDTLKNCMLRFQTSFSDYLLNTTKECETVMTKFLAFEPQSEIDRFAKDASQYNFQLSSSSKEVVPNNAS | soluble
MGSSHHHHHHSSGLVPRGSHMAVSGPDDYLQHSIVPTMHYQDSLPRLPIPKLEDTMKRYLNAQKPLLDDSQFRRTEALCKNFETGVGKELHAHLLAQDKQNKHTSYISGPWFDMYLTARDSIVLNFNPFMAFNPDPKSEYNDQLTRATNLTVSAVRFLKTLQAGLLEPEVFHLNPSKSDTDAFKRLIRFVPPSLSWYGAYLVNAYPLDMSQYFRLFNSTRIPRPNRDELFTDTKARHLLVLRKGHFYVFDVLDQDGNIVNPLEIQAHLKYILSDSSPVPEFPVAYLTSENRDVWAELRQKLIFDGNEETLKKVDSAVFCLCLDDFPMKDLIHLSHTMLHGDGTNRWFDKSFNLIVAEDGTAAVHFEHSWGDGVAVLRFFNEVFRDSTQTPAITPQSQPAATNSSASVETLSFNLSGALKAGITAAKEKFDTTVKTLSIDSIQFQRGGKEFLKKKQLSPDAVAQLAFQMAFLRQYGQTVATYESCSTAAFKHGRTETIRPASIFTKRCSEAFVRDPSKHSVGELQHMMAECSKYHGQLTKEAAMGQGFDRHLYALRYLATARGLNLPELYLDPAYQQMNHNILSTSTLNSPAVSLGGFAPVVPDGFGIAYAVHDDWIGCNVSSYSGRNAREFLHCVQKCLEDIFDALEGKAIKT | soluble
MGSSHHHHHHSSGLVPRGSHMDRKTEFIECTNAFNEKPKKGIPMLIEKGFIASDSDKDIAEFLFNNNNRMNKKTIGLLLCHPDKVSLLNEYIRLFDFSGLRVDEAIRILLTKFRLPGESQQIERIIEAFSSAYCENQDYDPSKISDNAEDDISTVQPDADSVFILSYSIIMLNTDLHNPQVKEHMSFEDYSGNLKGCCNHKDFPFWYLDRVYCSIRDKEIVMPEEHHGNE | soluble
MGSSHHHHHHSSGLVPRGSHMEPAATTYGTSTSVGVHNAYEKEKYRYFADALDSGAALLELDLWSNALGRSWRVSHSNPLGNNSNCEGAANASELRTKSRDQDFAGCLSDMRAWHDAHPGHRPILLKIEMKDGFNAKGGRGPAEFDALIRQKLGDAVYGPGDLTGGHATADEAVRAGGWPSRADLAGKFLFELIPGTVEEKNPFDKLWTDVEYAGHLKDLAAQGKLAQSTAFPAVHGAAPGDPRERYADPALRPWFVVFDGDAATYLNGSIDTSWYDTRHYLLIMTDAHNVPPVIDGTHPTEAEALARVRQLAAAHASFATADWYPLPSVLKTVVPRGA | soluble
MGSSHHHHHHSSGLVPRGSHMGTASNGSTQQLPQTIIIGVRKGGTRALLEMLSLHPDVAAAENEVHFFDWEEHYSQGLGWYLTQMPFSSPHQLTVEKTPAYFTSPKVPERIHSMNPTIRLLLILRDPSERVLSDYTQVLYNHLQKHKPYPPIEDLLMRDGRLNLDYKALNRSLYHAHMLNWLRFFPLGHIHIVDGDRLIRDPFPEIQKVERFLKLSPQINASNFYFNKTKGFYCLRDSGKDRCLHESKGRAHPQVDPKLLDKLHEYFHEPNKKFFKLVGRTFDWH | soluble
MGSSHHHHHHSSGLVPRGSHMLEDPMGTLIRATTLSRLSFIDVVNDNGFYQFEKPKEGRKYVATLDCSEGRGQDYHALQIIDITEFPYKQVAVYHSNTTSHFILPDIVFKYLMMYNECPVYIELNSTGVSIAKSLAMDLEYDNIICDSFIDLGMKQSKRSKAMGCSALKDLIEKDKLIINHKGTIQELRTFSEKGVSWAAEEGFHDDLVMSLVIFGWLTTQEKFAEYAGKDE | soluble
MGSSHHHHHHSSGLVPRGSHMPLYYRSIIEEHMAVRKHVGIFDVSHMGDVTVSGKDASAFLDHMFPTKVSNLKNGECVYTAFLNDSGLMIDDTIVYRMGEDSYFFVPNAGTTEKIYRWVSDHSAGYSVKIENVSNRISSIALQGPESEEVLNELGFSYPGYFKFQYVSGKYMNAITGKDQIIISGTGYTGEKGVEFIIPNEHAVELWKKLLEAINKRNGLPAGLGARDTLRMEKGMLLSGHDFNEDRDPYEASVSFIVNNDEDFVGKKNLEIRRRSDHEIFRGFVLSDGIPRNGNPIKAGGKRVGTVTSGTISPVLNKGIALGYIDKAYSKENTEVMIEIRSVDHKAVVTKPRIVK | soluble
MGSSHHHHHHSSGLVPRGSHMTPDDIAGFYAKRADLDLDNYIELDFDFECAGDPHEAAAHLCSEQSTAQWRRVGFDEDFRPRFAAKVLELSAEPRPSGFSVPVECAARGPVHACRVTIAHPHGNFGAKIPNLLSAVCGEGVFFSPGIPLIRLQDIRFPEPYLAAFDGPRFGIAGVRERLQAFDRPIFFGVIKPNIGLPPQPFAELGYQSWTGGLDIAKDDEMLADVDWCPLAERAALLGDACRRASAETGVPKIYLANITDEVDRLTELHDVAVANGAGALLINAMPVGLSAVRMLRKHATVPLIAHFPFIAAFSRLANYGIHSRVMTRLQRLAGFDVVIMPGFGPRMMTPEHEVLDCIRACLEPMGPIKPCLPVPGGSDSAATLENVYRKVGSADFGFVPGRGVFGHPMGPAAGATSIRQAWDAIAAGIPVPDHAASHPELAAALRAFGGR | soluble
MGSSHHHHHHSSGLVPRGSHMYLINQNGWIEVICGSMFSGKSEELIRRVRRTQFAKQHAIVFKPCIDNRYSEEDVVSHNGLKVKAVPVSASKDIFKHITEEMDVIAIDEVQFFDGDIVEVVQVLANRGYRVIVAGLDQDFRGLPFGQVPQLMAIAEHVTKLQAVCSACGSPASRTQRLIDGEPAAFDDPIILVGASESYEPRCRHCHAVPTKQR | soluble
MGSSHHHHHHSSGLVPRGSSTYRDIVVKKEDGFTQIVLSTRSTEKNALNTEVIKEIVNALNSAAADDSKLVLFSAAGSVFCCGLDFGYFVKHLRNNRNTASLEMVDTIKNFVNTFIQFKKPIVVSVNGPAIGLGASILPLCDLVWANEKAWFQTPYTTFGQSPDGCSSITFPKMMGKASANEMLIAGRKLTAREACAKGLVSQVFLTGTFTQEVMIQIKELASYNPIVLEECKALVRCNIKLELEQANERECEVLRKIWSSAQGIESMLKIPLLGYKAAFPPRKTQNDQRW | soluble
MGSSHHHHHHSSGTIEGRMIRLTDNRPIGFIDSGVGGLTVVKEALKQLPNENILFVGDTARCPYGPRPAEQVIQYTWEMTDYLVEQGIKMLVIACNTATAVALEEIKAALSIPVIGVILPGTRAAVKKTQNKQVGIIGTIGTVKSQAYEKALKEKVPELTVTSLACPKFVSVVESNEYHSSVAKKIVAETLAPLTTKKIDTLILGCTHYPLLRPIIQNVMGENVQLIDSGAETVGEVSMLLDYFNLSNSPQNGRTLCQFYTTGSAKLFEEIAEDWLGIGHLNVEHIELGGK | soluble
MGSVEIPTKVLTNTSSQLKMPVVGMGSAPDFTCKKDTKDAIIEAIKQGYRHFDTAAAYGSEQALGEALKEAIELGLVTRDDLFVTSKLWVTENHPHLVIPALQKSLKTLQLDYLDLYLIHWPLSSQPGKFSFPIDVADLLPFDVKGVWESMEESLKLGLTKAIGVSNFSVKKLENLLSVATVLPAVNQVEMNLAWQQKKLREFCNAHGIVLTAFSPVRKGASRGPNEVMENDMLKEIADAHGKSVAQISLRWLYEQGVTFVPKSYDKERMNQNLRIFDWSLTKEDHEKIAQIKQNRLIPGPTKPGLNDLYDD | soluble
MGTHSGHERNGESARGGALQRLERRLAAAWAEQDAYQIEQLAGMIYDRLVRSDPSAAATVLEQNAHRLAVAGKPAEAAELATRLIRHWRELEQRPFYLARLQQMVLEPLQALSGVEAARARTMVLEAVLAWKRASATVDTEEAAPAELAPVQDALVDAYVLCGEWARAQYQVVCRGGPAERDLAFIDEQLGPHLANDVERMLARTRLVLFYVLAGNLKAGRALVEEIQRKHPTAPMTNFVVILMQVLERARNVDSSKRRLLRNFCDDLKRVYHWAFSLDPELDAMLDDVLKAQGL | not soluble
MGTKIIGTGVYLPKNVLTNFDLEKIVDTSDEWITTRTGIKERRIAKEETITYMATQAAKEALREANLSPEELDLIILATLTPQKRFPSTACLVQAQLKAKGVYAFDISAACSGFIYALDIADSFIKSGKAKNVLVIGAEKLSEAVDWEDRSTCVLFGDGAGAVVVTRSEDKSDILATRMYAEGSLEELLHADNCGYIRMKGRELFKVAVRSMEEVCREVLEKAGVKPEEVSLVIPHQANVRIINALAEKLNIPKEKVFVNIQKYGNTSAASIPIALHEAIKEGKVKRGDLILMTAMGGGLTWGAVLLRY | soluble
MGTKLSVSLEGASTPETAPRVDRPPTFDPQYGFERPRKVREMKATWEEMEQWKLKPAQRDYCAHHLISLMKCQTQNAPFAGHACDGERGAWDKCEYDDHIMRIKEFERERRLLQRQARKEATA | not soluble
MGTRCAVTPELRFVLAFPDVYEVGMSHLGLQILYGVLNTLDGVAAERAYAPWPDREAQLRAEGIPLATLESGTSLDRADIVGFTLQYELSYTNILNMLDLAGIPLLASERDERHPLIIGGGPCACNPEPLADFFDAFLLGDGEEAVIEIAEAFRAWKRAGGARSGLLERLAGIAGVYVPSFFAVRYGDNNRIAAVEPLRPDYGPVKRRFLAELEPAAYPTAPVVPFLKTIHDRVSVEISRGCTRGCRFCQAGYLYRPVRERSPEKILALVEETLRATGYDEISLLSLSTGDYGCLTPLLTELMARYASERIAVSLPSMRVGSLNDELVEAIRTVRKTGFTLAPEAGSERLRRVINKGISEEDLLRNAFEAYSHGWRLIKLYFMIGLPGETEEDLHGIVELARKVKMEGRRAGSGGEVNVSVSTFVPKAHTPFQWEPQIPVGEILEKQGLLRRELRARKLVFKWHDAPLSFMEGVFARGDRRLGAALRRAWELGCRFDGWGDRFDEAAWRTAFEETGIDPAFYHRRREPDEVLPWGHLDFGVTREFLLRELELSRQGAATEDCRTGRCTGCGVCDFSQVRLRLADDGLEHHHHHH | not soluble
MGTRRDVRQEMLDDVQKKLMSLANSSEGKVDKVLMRNLFIGHFHTPKNQRHEVLRLMGSILGVRREEMEQLFHDDQGSVTRWMTGWLGGGSKSVPNTPLRPNQQSVVNSSFSELFVKFLETESHPSIPPPKLSVHDMKPLDSPGRRKRDTNAPESFKDTAESRSGRRTDVNPFLAPRSAAVPLINPAGLGPGGPGIFFLEHHHHHH | not soluble
MGTTSSQSKTLYQKLYDAHIVHEAPNETPLLYIDRHLVHEVTSPQAFDGLRAMGRPVRQPGKTFATMDHNVSTQTKDINASGEMARIQMQELIKNCAEFGVSLYDLNHPFQGIVHVIGPEQGMTLPGMTIVCGDSHTATHGAFGSLAFGIGTSEVEHVLATQTLKQGRAKTMRIEVNGTVGAGITAKDIVLAIIGKTGSAGGTGHVVEFCGSAIEALSMEGRMTLCNMAIEMGAKAGLVAPDDTTFAYLKGRQFAPTGEQWEQGVAYWRTLKSDADAQFDTIVTLDAADIAPQVTWGTNPGQVIAVNQIIPAPESFSDPVERASAEKALAYMDLRPGIKLTEVAIDKVFIGSCTNSRIEDLRAAAAIAQGRKVAKGVQAIVVPGSGPVKAQAEAEGLDKIFIAAGFEWRLPGCSMCLAMNNDRLEPGERCASTSNRNFEGRQGRGGRTHLVSPAMAAAAAVSGHFADVRELSATTH | not soluble
MGVALAAMCLMSAQAQRRNEIQVPNLNGYTTLKCDFHMHSVFSDGLVWPTVRVDEAYREGLDAISLTEHIEYRPHKKDIIADHNRSYELSQKQAKKLGILLIRGSEITRSMPPGHFNAIFLNDSNPLEQKAYKDAFNEAKKQGAFIFWNHPGWARQQPDSTLWWPEHTQLYNDGCMHGIEVANGGLFMPEAIQWCLDKNLTMIGTSDIHQPIQTDYDFSKGEHRTMTFVFAKERSPEGIREALDNRRTAVYYRELVIGREEILRPFFEKCVDIKEVKRTEKEVTFSVMNATDLVLKLKKTAHDPSLVYFREMTLKPHTQHTISVKFDNGIKGGDCNFEVTNFIVAPDKGLDYTIKL | not soluble
